Target: GST-CENP-C (1-727) (human, UniProt Q03188 1-727)
Test: pull-down

GST-CENP-C (1-727), sequence (Q03188 1-727): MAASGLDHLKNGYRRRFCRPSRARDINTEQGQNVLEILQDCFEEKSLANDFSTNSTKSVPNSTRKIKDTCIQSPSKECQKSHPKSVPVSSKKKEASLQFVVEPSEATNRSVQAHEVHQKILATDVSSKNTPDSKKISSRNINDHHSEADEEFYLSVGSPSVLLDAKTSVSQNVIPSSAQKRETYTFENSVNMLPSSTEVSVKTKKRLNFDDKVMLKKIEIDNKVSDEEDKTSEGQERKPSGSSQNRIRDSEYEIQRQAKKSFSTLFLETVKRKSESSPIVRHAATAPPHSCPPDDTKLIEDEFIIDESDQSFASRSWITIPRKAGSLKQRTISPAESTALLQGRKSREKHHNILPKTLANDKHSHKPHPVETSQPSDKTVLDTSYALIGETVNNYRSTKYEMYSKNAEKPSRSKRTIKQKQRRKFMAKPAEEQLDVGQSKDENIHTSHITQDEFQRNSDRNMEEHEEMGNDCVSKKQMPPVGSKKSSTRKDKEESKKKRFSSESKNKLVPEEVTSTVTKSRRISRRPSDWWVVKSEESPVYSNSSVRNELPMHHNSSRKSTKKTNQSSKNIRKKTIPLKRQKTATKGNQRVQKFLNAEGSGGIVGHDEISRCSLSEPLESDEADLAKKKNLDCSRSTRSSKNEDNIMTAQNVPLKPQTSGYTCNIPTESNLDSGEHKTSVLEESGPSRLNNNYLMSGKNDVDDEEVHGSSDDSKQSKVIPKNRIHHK

binding result: binds
B1: His-CENP-B (161–599) (domain or fragment, human, UniProt P07199 161-599, looked up)
chain: PSEGSGGSTTGWRAREEQPPSVAEGYASQDVFSATETSLWYDFLPDQAAGLCGGDGRPRQATQRLSVLLCANADGSEKLPPLVAGKSAKPRAGQAGLPCDYTANSKGGVTTQALAKYLKALDTRMAAESRRVLLLAGRLAAQSLDTSGLRHVQLAFFPPGTVHPLERGVVQQVKGHYRQAMLLKAMAALEGQDPSGLQLGLTEALHFVAAAWQAVEPSDIAACFREAGFGGGPNATITTSLKSEGEEEEEEEEEEEEEEGEGEEEEEEGEEEEEEGGEGEELGEEEEVEEEGDVDSDEEEEEDEESSSEGLEAEDWAQGVVEAGGSFGAYGAQEEAQCPTLHFLEGGEDSDSDSEEEDDEEEDDEDEDDDDDEEDGDEVPVPSFGEAMAYFAMVKRYLTSFPIDDRVQSHILHLEHDLVHVTRKNHARQAGVRGLGHQS

Source: publication PMC7560200 (The EMBO Journal, 2020)
